The values below come from article PMC4893161, “The Dynamic Localization of Cytoplasmic Dynein in Neurons Is Driven by Kinesin-1” (Neuron, 2016).

Common to all, as to type: binding
One assay has as its system KLC2. Nature of the assay: Co-immunoprecipitation of KLC2 versus KLC1 with mCherry-DIC1a in COS cells. The settings on record: COS cell lysates, IP anti-mCherry, band intensity relative to KLC1, n = 4 experiments.
For another assay, the system named is KIF5A, KIF5B, KIF5C. The assay can be described thus: Co-immunoprecipitation of DIC1a with myc-tagged KIF5 isoforms in COS cells. The following applies: IP anti-myc, Figure 4A.
A further assay has as its system KIF5C stalk (561–774). Nature of the assay: Co-immunoprecipitation of DIC1a with KIF5C head, stalk and tail constructs in COS cells. The settings on record: IP anti-GFP, Figures 4B and 4C.

B1: DIC1a: neuron-specific dynein intermediate chain isoform, expressed in COS cells (protein)
chain: MSDKSDLKAELERKKQRLAQIREEKKRKEEERKKKEADMQQKKEPVPDDSDLDRKRRETEALLQSIGISPEPPLVQPLHFLTWDTCYFHYLVPTPMSPSSKSVSTPSEAGSQDDLGPLTRTLQWDTDPSVLQLQSDSELGRRLNKLGVSKVTQVDFLPREVVSYSKETQTPLATHQSEEDEEDEEMVEPKVGHDSELENQDKKQETKEAPPRELTEEEKQQILHSEEFLIFFDRTIRVIERALAEDSDIFFDYSGRELEEKDGDVQAGANLSFNRQFYDEHWSKHRVVTCMDWSLQYPELMVASYSNNEDAPHEPDGVALVWNMKFKKTTPEYVFHCQSSVMSVCFARFHPNLVVGGTYSGQIVLWDNRSHRRTPVQRTPLSAAAHTHPVYCVNVVGTQNAHNLITVSTDGKMCSWSLDMLSTPQESMELVYNKSKPVAVTGMAFPTGDVNNFVVGSEEGTVYTACRHGSKAGIGEVFEGHQGPVTGINCHMAVGPIDFSHLFVTSSFDWTVKLWTTKHNKPLYSFEDNADYVYDVMWSPVHPALFACVDGMGRLDLWNLNSDTEVPTASVAIEGAYALNRVRWAQGGKEVAVGDSEGRIWIYDVGELAVPHNDEWTRFARTLVEIRANRADSEEEGAVELAA
modifications: left off: mCherry, end not stated, kept
notes: neuron-specific dynein intermediate chain isoform, expressed in COS cells
In the case of B1, the “KLC2 relative to KLC1 co-immunoprecipitated with DIC1a” value with KLC2 amounted to 5 fold. Further, the “co-precipitation with all three KIF5 isoforms” value in the assay on KIF5A, KIF5B, KIF5C was “co-precipitated”. The “co-precipitation with stalk region of KIF5C” value in the assay on KIF5C stalk (561–774) is given as “co-precipitated”.
